Residue numbers refer to the chain shown, from its start.
B1: Deglyco-C4: deglycosylated clone 1 IgG; light chain CDR1 TGSSSNIGAVVVT (SEQ ID NO: 5) (antibody, V domains shown)
VH: EVQLVESGGGLVQPGGSLRLSCAVSGFTFSGYDMSWIRQAPGKGLEWVAGIYPDGGNTYYADSVKGRFTISRDDSKNTFYLQMNSLRAEDTAVYYCARGATWWVLGPFDYWGQGTLVTVSS
VL: DIQLTQSPSSLSASVGDRVTITCTGSSSNIGAVVVTWYQQKPGKAPKLLIYADSHRPSGVPSRFSGSGSGTDFTLTISSLQPEDFATYYCGAWDDSLSGYVFGQGTKVEIKR
B2: Deglyco-C2: deglycosylated clone 1 IgG; light chain CDR1 TGSSSNIGATAVT (SEQ ID NO: 3) (antibody, V domains shown)
VH: B1 VH
VL: B1 VL with V33T, V34A
B3: Deglyco-C3: deglycosylated clone 1 IgG; light chain CDR1 TGSSSNIGWSNVT (SEQ ID NO: 4) (antibody, V domains shown)
VH: B1 VH
VL: B1 VL with A32W, V33S, V34N
B4: Opti 3: IgG, heavy chain CDR3 GATWWVLGAFDY (SEQ ID No: 27), VL of Deg C1 (antibody, V domains shown)
VH: B1 VH with P107A
VL: B1 VL with A32R, V33C, V34G
B5: Opti 16: IgG, heavy chain CDR3 GARRQVLGCFDF (SEQ ID No: 40), VL of Deg C1 (antibody, V domains shown)
VH: B1 VH with T101R, W102R, W103Q, P107C, Y110F
VL: B1 VL with A32R, V33C, V34G
B6: Opti 1: IgG, heavy chain CDR3 GAATKVLGKFDC (SEQ ID No: 25), VL of Deg C1 (antibody, V domains shown)
VH: B1 VH with T101A, W102T, W103K, P107K, Y110C
VL: B1 VL with A32R, V33C, V34G
B7: Opti 13: IgG, heavy chain CDR3 GAMEQVLGPFDL (SEQ ID No: 37), VL of Deg C1 (antibody, V domains shown)
VH: B1 VH with T101M, W102E, W103Q, Y110L
VL: B1 VL with A32R, V33C, V34G
B8: deglyco C2 IgG (antibody, V domains shown)
VH: B1 VH
VL: B1 VL with V33T, V34A
notes: IgG expressed in HEK293 cells; also called Deg C2
B9: deglyco C3 IgG (antibody, V domains shown)
VH: B1 VH
VL: B1 VL with A32W, V33S, V34N
notes: IgG expressed in HEK293 cells; also called Deg C3
B10: deglyco C4 IgG (antibody, V domains shown)
VH: B1 VH
VL: B1 VL
notes: IgG expressed in HEK293 cells; also called Deg C4

Test system: not listed separately
Assay: aggregation and purification amounts of deglycosylated antibodies, before and after φ
Format: physicochemical
Settings: based on 100 ml culture

Row | Molecule | Final um, After φ [mg] | Final um, Before φ [mg] | Fraction1, After φ [mg] | Fraction1, Before φ [mg] | Fraction2, After φ [mg] | Fraction2, Before φ [mg] | Fraction3, After φ [mg] | Fraction3, Before φ [mg] | Fraction4, After φ [mg] | Fraction4, Before φ [mg]
1 | B1 | 1.442 | 1.390 | 0.015 | 0.019 | 1.126 | 1.135 | 0.251 | 0.255 | 0.050 | 0.057
2 | B2 | 5.018 | 5.032 | 0.018 | 0.019 | 3.702 | 3.718 | 1.110 | 1.113 | 0.198 | 0.201
3 | B3 | 2.768 | 2.918 | 0.012 | 0.014 | 2.109 | 2.209 | 0.520 | 0.580 | 0.127 | 0.129

Test system: GFP-transfected HUVECs
Assay: IncuCyte real-time VEGF-dependent angiogenesis assay
Format: cell-based, human
Settings: 20 ug/ml
Procedure: In order to identify inhibitory activity of optimized candidate antibodies against angiogenesis dependent upon VEGF, which is a key factor of angiogenesis, anti-angiogenesis activity was comparatively analyzed using an IncuCyte FLR live content imaging system (Essen Bioscience Inc.) providing real-time analysis of angiogenesis. First, GFP-transfected HUVECs were seeded on a […] plate, were treated with 36 types of antibodies at a concentration of 20 ug/ml and in vitro efficacy was then compared. At this time, optimized antibodies were comparatively analyzed in terms of efficacy with parental IgG (parent antibody: clone 1 of WO 2013/187556), deglyco C1 and bevacizumab (Avastin) as positive control groups.

Row | Molecule | anti-angiogenesis activity (tube length and branch point)
4 | B4 | potent efficacy
5 | B5 | potent efficacy
6 | B6 | potent efficacy

Same assay, conditions: representative images

Row | Molecule | changes in tube length (progression of angiogenesis)
7 | B4 | same efficacy as Suramin and Avastin
8 | B5 | same efficacy as Suramin and Avastin
9 | B6 | same efficacy as Suramin and Avastin

Test system: HUVEC cells
Assay: EGM-dependent HUVEC tube formation
Format: cell-based, human
Settings: 20 ug/ml
Description: EGM is a type of complex including a variety of angiogenesis factors, which has been used to induce strong angiogenesis using vascular endothelial cells.

Row | Molecule | suppression of EGM-dependent tube formation
10 | B7 | efficiently suppressing angiogenesis
11 | B5 | efficiently suppressing angiogenesis
12 | B6 | efficiently suppressing angiogenesis

Test system: HUVEC migration
Assay: IncuCyte HUVEC migration assay
Format: cell-based, human
Settings: 20 ug/ml
Procedure: In order to analyze in vitro efficacies of the optimized candidate antibodies on endothelial migration, which is another function of angiogenesis, HUVEC migration assay was conducted using an IncuCyte FLR live content imaging system (Essen Bioscience Inc). At this time, regarding a wound, a uniform wound was created using a wound maker commercially available from Incucyte and was treated with 20 ug/ml of respective antibodies, and inhibitory activity against migration was comparatively evaluated.

Row | Molecule | endothelial migration inhibitory activity
13 | B7 | same endothelial migration inhibitory activity as parent antibody (original C1), deglyco C1 IgG, and Avastin
14 | B5 | same endothelial migration inhibitory activity as parent antibody (original C1), deglyco C1 IgG, and Avastin
15 | B6 | same endothelial migration inhibitory activity as parent antibody (original C1), deglyco C1 IgG, and Avastin

Test system: HUVECs (human umbilical vein endothelial cells)
Assay: flow cytometry cross-species reactivity
Format: cell-based
Settings: 20 ug/ml
Procedure: (§1) In order to identify cross-species reactivity of the optimized antibodies, HUVECs (human umbilical vein endothelial cells) and MAECs (mouse aortic endothelial cells) were each cultured, the two cell groups were treated with 20 ug/ml of the parent antibody (original C1), deglyco C1, and clones 1, 13 and 16, and whether or not binding ability exists on the surface of two types of cells was identified by flow cytometry.

Row | Molecule | binding to HUVEC surface
16 | B7 | had cross-species reactivity
17 | B5 | had cross-species reactivity
18 | B6 | had cross-species reactivity

Test system: MAECs (mouse aortic endothelial cells)
Assay: flow cytometry cross-species reactivity
Format: cell-based
Settings: 20 ug/ml
Procedure: as §1

Row | Molecule | binding to MAEC surface
19 | B7 | had cross-species reactivity
20 | B5 | had cross-species reactivity
21 | B6 | had cross-species reactivity

Target: T1, hclec14a-CTLD-Fc (human, UniProt Q86T13 31-172, limits assumed)
T1 construct: domain: C-type lectin-like domain (CTLD); also called human clec14a-CTLD-Fc; human CTLD; not shown: Fc
T1 sequence (looked up): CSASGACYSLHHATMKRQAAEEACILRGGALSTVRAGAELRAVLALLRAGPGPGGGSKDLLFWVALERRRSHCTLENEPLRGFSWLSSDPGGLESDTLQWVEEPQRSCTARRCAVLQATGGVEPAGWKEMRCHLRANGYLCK
Assay: ELISA on hclec14a-CTLD-Fc
Settings: not given

Row | Molecule | binding result
22 | B8 | binds
23 | B9 | binds
24 | B10 | binds

Target: T2, mclec14a-CTLD-Fc (mouse, UniProt Q8VCP9 31-172, limits assumed)
T2 construct: domain: C-type lectin-like domain (CTLD); also called mouse clec14a-CTLD-Fc; mouse CTLD; not shown: Fc
T2 sequence (looked up): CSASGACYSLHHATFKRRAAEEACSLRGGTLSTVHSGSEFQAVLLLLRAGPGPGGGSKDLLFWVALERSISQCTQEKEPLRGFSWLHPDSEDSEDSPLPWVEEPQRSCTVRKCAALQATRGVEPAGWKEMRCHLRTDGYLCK
Assay: ELISA on mclec14a-CTLD-Fc
Settings: not given

Row | Molecule | binding result
25 | B8 | binds
26 | B9 | binds
27 | B10 | binds

Reference: US20190309074A1, “DEGLYCOSYLATED ANTIBODY SPECIFICALLY BINDING TO CLEC14A AND USES THEREOF” (WOORI TECHNOLOGIES CORPORATION, priority 2016, published 2019)
